Test results from US9957295B2, “Peptides inhibiting cold-inducible RNA binding protein activity” (The Feinstein Institute for Medical Research, priority 2013, dated 2018).

Key:
[1] = tested on: wild-type and TLR4 knockout mice; assay: rmCIRP injection into wild-type and Tlr4−/− mice; type: in vivo, mouse; conditions: 1 or 5 mg/kg BW, after 4 h
Description: Tlr4^−/− mice were incubated with 1.5 μg/ml rmCIRP for 4 h. TNF-α levels in conditioned medium were assayed by ELISA. Data are mean±s.e.m. from three independent experiments. *P<0.05 vs. WT. In comparing the difference among wild-type and knockout mice targeting each receptor in response to rmCIRP, only TLR4-deficient macrophages lost the response for TNF-α induction, while RAGE- and TLR2-deficient macrophages maintained similar responses to wild-type macrophages (FIG. 13A). To confirm the requirement of TLR4 in mediating CIRP activity, wild-type and TLR4 knockout mice were injected with rmCIRP (1 or 5 mg/kg BW) or normal saline (vehicle). After 4 h, serum samples were collected and assayed for TNF-α and IL-6 by ELISA and HMGB1 by Western blotting as well as serum AST and ALT. Data are mean±s.e.m., n=6-9/group, *P<0.05 vs. WT no rmCIRP; #P<0.05 vs. WT with rmCIRP at 5 mg/kg. […] In contrast, these deleterious effects of rmCIRP on the wild-type mice were diminished in Tlr4^−/− mice.

THP-1 cells = assay: TNF-α release from differentiated THP-1 cells stimulated with recombinant proteins; type: cell-based, human; conditions: 0.3 μg/ml each protein, 8 h, ELISA
Description: As with the murine model, the stimulation of TNF-α, release by rCIRP in a human model was studied. […] These experiments were conducted by incubating differentiated human THP-1 cells with rhCIRP or rmCIRP at the indicated concentrations for 4 h. *P<0.05 vs. no CIRP. Similarly, human PBMC were incubated with the indicated concentrations of rhCIRP for 8 h. *P<0.05 vs. no rhCIRP. Thus, stimulation of cytokine release by CIRP was not attributable to LPS contamination. Furthermore, CIRP-induced cytokine activation was conserved between rodents and humans.
rmCIRP induced TNF-α and HMGB1 release in macrophages (FIGS. 10a, b and c). It was reported that HMGB1 can also stimulate TNF-α release (Andersson, U., et al. High mobility group 1 protein (HMG-1) stimulates proinflammatory cytokine synthesis in human monocytes. J. Exp. Med. 192, 565-570 (2000)). The relationship between CIRP and HMGB1 on stimulating TNF-α release was analyzed by applying respective neutralizing antibodies. […] After 4 h, TNF-α levels in conditioned medium (CM) were assayed by ELISA. Data are mean±s.e.m. from three independent experiments. *P<0.05 vs. rmCIRP+ control IgG. In FIG. 16D, RAW 264.7 cells were pre-incubated with rabbit control IgG or anti-CIRP antibodies at indicated dilutions of 1 mg/ml for 20 min before adding 1.0 μg/ml rmCIRP. After 4 h, TNF-α levels in CM were assayed by ELISA. Data are mean±s.e.m. from three independent experiments. *P<0.05 vs. rmCIRP+ control IgG. THP-1 cells were incubated with 4 μg/ml of anti-CIRP antibodies, anti-HMGB1 antibodies, or non-immunized control IgG for 1 h prior to adding rmCIRP (0.3 μg/ml), rmHMGB1 (0.3 μg/ml), or rmCIRP/rmHMGB1 (0.3 μg/ml, 0.3 μg/ml) for 8 h. *P<0.05 vs. rmCIRP; #P<0.05 vs. rmHMGB1. […] Furthermore, rmCIRP, rmHMGB1, and rmCIRP plus rmHMGB1 induced TNF-α levels of 0.8, 0.6, and 1.6 ng/ml, respectively. […] TNF-α levels in all collected CM were assayed by ELISA. Data are mean±s.e.m. from three or four independent experiments.
Murine macrophage-like RAW 264.7 cells and human monocyte THP-1 cells were obtained from ATCC (Manassas, Va.). […]

B1: rmCIRP: recombinant murine (rat sequence) His-tagged CIRP expressed in E. coli (protein)
chain: MASDEGKLFVGGLSFDTNEQALEQVFSKYGQISEVVVVKDRETQRSRGFGFVTFENIDDAKDAMMAMNGKSVDGRQIRVDQAGKSSDNRSRGYRGGSAGGRGFFRGGRSRGRGFSRGGGDRGYGGGRFESRSGGYGGSRDYYASRSQGGSYGYRSSGGSYRDSYDSYATHNEHHHHHH
deleterious effects in Tlr4−/− mice [1]: diminished
serum cytokines and organ injury markers in wild-type mice [1]: increase of serum proinflammatory cytokines (TNF-α, IL-6, and HMGB1) and organ injury markers (AST and ALT) in a dose-dependent manner
induced TNF-α levels (THP-1 cells): 0.8 ng/mL
